Experiment [1] deals with T1, human NPRA on HEK293 cells, without added ligand (human, UniProt P16066 33-1061).
T1 construct: a signal peptide is not delimited; also called HEK NPRA cells; HEK hNPRA cells
T1 sequence: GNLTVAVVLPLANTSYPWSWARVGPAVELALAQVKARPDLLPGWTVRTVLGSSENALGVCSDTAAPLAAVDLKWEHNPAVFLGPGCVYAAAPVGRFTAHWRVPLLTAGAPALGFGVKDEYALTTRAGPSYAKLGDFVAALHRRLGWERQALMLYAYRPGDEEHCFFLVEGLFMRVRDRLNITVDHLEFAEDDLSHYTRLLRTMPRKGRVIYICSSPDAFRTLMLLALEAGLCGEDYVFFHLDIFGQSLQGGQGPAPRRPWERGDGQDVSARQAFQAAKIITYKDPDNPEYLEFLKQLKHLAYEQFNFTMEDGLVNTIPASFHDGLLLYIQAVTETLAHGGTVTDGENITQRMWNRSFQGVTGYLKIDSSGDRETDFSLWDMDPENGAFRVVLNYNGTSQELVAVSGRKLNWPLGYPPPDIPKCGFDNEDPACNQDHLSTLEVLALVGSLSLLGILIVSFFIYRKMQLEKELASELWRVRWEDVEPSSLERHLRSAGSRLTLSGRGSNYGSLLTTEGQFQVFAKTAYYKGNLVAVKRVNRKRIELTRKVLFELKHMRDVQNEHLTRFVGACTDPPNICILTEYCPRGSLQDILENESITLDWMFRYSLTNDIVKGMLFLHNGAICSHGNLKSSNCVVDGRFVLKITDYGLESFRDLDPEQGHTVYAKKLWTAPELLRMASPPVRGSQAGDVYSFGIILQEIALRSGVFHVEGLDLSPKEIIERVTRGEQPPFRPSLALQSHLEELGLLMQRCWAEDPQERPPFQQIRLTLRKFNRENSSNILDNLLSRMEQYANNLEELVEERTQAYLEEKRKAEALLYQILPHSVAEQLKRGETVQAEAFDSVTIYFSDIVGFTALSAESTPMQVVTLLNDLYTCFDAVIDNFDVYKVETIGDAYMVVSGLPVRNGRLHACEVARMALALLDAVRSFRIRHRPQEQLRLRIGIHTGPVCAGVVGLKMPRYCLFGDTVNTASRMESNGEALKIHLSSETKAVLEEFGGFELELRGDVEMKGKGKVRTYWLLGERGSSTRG
As to the kind of experiment: FACS, HEK NPRA cells without ligand. (In general: In flow cytometry, cells or beads pass a laser one at a time.)
Experimental: (§1) HEK NPRA cells are detached with Accutase (PAA Laboratories GmbH, Cat. No. L11-007, Austria), harvested by centrifugation (900 rpm, 4 minutes) and resuspended in FACS buffer (PBS/3% FCS/0.02% NaN3) to a final concentration of 10⁶ cells/ml. 100 μl of the cell suspension is transferred to each well of a 96 round bottom plate (TC Microwell 96U, Nunc). […] Cells are washed in 150 μl of FACS buffer, pelleted and resuspended in 50 μl of the solution containing the primary antibody comprising a BEL extract of Fabs, a diluted BEL extract or purified antibody diluted in FACS buffer and incubated on ice for 30 min. Cells are washed again in FACS buffer and resuspended in 50 μl of FACS buffer containing the secondary antibody (R-Phycoerythrin-conjugated Affipure F(ab′)₂ Fragment Goat Anti-Human IgG, Dianova) and incubated on ice for 45 min. Cells are washed twice with FACS buffer and resuspended in 200 μl of FACS buffer for analysis in the FACS Array (BD Biosciences).

Experiment [2] concerns the target T2, human NPRB on HEK293 cells, without added ligand (human, UniProt P20594 23-1047).
T2 construct: whole, on cells; also called HEK NPRB cells; natriuretic peptide receptor B
T2 sequence (looked up): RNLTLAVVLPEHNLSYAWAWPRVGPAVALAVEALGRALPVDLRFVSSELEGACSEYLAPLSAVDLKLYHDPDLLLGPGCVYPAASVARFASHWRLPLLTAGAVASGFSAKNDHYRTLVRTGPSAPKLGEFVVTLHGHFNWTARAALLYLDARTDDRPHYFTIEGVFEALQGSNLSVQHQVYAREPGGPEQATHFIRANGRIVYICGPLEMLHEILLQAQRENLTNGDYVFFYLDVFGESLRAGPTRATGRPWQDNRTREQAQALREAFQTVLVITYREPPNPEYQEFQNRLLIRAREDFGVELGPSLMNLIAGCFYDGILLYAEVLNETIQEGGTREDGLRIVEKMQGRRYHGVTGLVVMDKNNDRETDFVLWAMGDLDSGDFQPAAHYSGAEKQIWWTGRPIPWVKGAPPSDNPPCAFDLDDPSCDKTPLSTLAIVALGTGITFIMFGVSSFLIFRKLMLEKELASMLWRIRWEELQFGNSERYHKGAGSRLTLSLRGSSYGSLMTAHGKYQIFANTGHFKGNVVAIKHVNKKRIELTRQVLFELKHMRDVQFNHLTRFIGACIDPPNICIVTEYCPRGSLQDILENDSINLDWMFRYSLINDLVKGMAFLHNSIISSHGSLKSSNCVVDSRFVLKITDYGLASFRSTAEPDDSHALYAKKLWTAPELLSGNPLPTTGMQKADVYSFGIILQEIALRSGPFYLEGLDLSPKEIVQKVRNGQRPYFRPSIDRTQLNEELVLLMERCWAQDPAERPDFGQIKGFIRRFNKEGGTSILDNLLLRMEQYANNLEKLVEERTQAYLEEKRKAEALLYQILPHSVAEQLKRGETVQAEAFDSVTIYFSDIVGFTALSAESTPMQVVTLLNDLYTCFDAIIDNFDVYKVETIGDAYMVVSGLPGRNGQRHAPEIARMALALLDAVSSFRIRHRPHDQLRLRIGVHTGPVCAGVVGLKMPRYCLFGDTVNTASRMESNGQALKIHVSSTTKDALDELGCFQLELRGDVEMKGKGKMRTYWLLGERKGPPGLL
As to the kind of experiment: FACS, HEK NPRB cells without ligand.
Experimental: as §1

For experiment [3], the target named is T3, human NPRB on HEK293 cells in the presence of CNP (human, UniProt P20594 23-1047; P23582 105-126).
T3 construct: whole, on cells;mature; also called HEK NPRB cells + 100 nM CNP
T3 sequence (P23582 105-126 limits assumed, chain 2 of 2, one chain of several): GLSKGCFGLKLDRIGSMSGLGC
As to the kind of experiment: FACS, HEK NPRB cells with 100 nM CNP.
Experimental: as §1

In experiment [4] the target is T4, human NPRA on HEK293 cells bound to ANP (human, UniProt P01160 124-151).
T4 construct: mature; Receptor-ligand complex on cells; also called HEK NPRA cells loaded with ANP; ANP-NPRA complex
T4 sequence: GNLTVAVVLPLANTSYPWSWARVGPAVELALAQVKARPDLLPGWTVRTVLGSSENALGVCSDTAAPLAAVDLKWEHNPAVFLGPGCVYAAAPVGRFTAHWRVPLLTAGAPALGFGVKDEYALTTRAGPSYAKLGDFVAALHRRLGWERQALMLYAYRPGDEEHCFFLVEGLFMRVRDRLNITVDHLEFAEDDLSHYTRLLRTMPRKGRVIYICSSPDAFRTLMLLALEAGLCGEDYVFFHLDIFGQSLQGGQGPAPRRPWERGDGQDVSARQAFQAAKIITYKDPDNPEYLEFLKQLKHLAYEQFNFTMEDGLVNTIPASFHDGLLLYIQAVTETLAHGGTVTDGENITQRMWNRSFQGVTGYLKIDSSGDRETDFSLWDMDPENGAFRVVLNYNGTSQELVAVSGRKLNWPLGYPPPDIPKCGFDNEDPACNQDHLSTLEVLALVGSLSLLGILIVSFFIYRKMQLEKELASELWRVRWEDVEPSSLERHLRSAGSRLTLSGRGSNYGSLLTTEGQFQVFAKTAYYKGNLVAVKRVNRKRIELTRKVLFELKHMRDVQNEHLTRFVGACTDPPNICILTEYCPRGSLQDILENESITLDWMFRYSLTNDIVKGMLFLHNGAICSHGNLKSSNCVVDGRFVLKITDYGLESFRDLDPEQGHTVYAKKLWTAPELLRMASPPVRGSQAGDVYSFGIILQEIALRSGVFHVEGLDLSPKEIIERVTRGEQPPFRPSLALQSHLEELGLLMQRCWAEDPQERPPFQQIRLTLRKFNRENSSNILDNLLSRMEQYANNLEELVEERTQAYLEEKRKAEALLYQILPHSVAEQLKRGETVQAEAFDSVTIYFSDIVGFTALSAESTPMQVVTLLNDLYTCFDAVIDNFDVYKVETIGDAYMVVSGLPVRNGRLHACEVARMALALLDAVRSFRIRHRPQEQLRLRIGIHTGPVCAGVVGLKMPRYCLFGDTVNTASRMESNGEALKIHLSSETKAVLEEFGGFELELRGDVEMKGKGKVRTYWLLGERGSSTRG
T4 sequence (peptide): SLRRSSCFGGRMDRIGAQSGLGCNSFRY
The experiment is described as follows: KinExA whole cell binding (Kd,app), HEK cells with human NPRA, ANP bound, 75 and 200 pM IgG. (In general: Kinetic exclusion samples the free partner from a solution-phase mixture.)
Experimental: Initial species cross-reactivity studies are performed using HEK cell lines overexpressing rat, canine and rhesus monkey NPRA. […] These apparent Kd values are obtained by globally fitting the data for two antibody concentrations.

B1: 5592 IgG4_Pro (antibody, V domains shown)
VH: QVQLQQSGPGLVKPSQTLSLTCAISGDSVSSRSASWSWIRQSPGRGLEWLGRTYYRSHWYYEYAQSVKSRITINPDTSKNQFSLQLNSVTPEDTAVYYCARMDVPSFRYFDVWGQGTLVTVSS
VL: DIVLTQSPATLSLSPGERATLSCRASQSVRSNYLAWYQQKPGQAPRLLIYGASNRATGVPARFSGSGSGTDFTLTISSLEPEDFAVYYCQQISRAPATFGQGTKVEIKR
Take B1: the binding result in experiment [1], in experiment [2] and in experiment [3] was “no binding (tested: 20 nM)” in each case.

B2: 5591 IgG4_Pro (antibody, V domains shown)
VH: QVQLQQSGPGLVKPSQTLSLTCAISGDSVSSRSASWSWIRQSPGRGLEWLGRTYYRSHWYYEYAQSVKSRITINPDTSKNQFSLQLNSVTPEDTAVYYCARMDVPSFRYFDVWGQGTLVTVSS
VL: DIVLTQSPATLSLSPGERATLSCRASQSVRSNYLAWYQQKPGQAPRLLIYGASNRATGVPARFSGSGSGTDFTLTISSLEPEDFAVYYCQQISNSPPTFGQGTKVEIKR
Take B2: the binding result in experiment [1], in experiment [2] and in experiment [3] was “no binding (tested: 20 nM)” throughout. The Kd in experiment [4] was determined as 590 pM.

(Values after patent US20160168251A1 (MorphoSys, published 2016).)
